Experimental data as given in patent US20240166695A1, “PEPTIDIC POSITIVE ALLOSTERIC MODULATORS TARGETING TRPV1” (priority 2021, published 2024).

Key:
TRPV1 channel [1] = assay: FRET imaging of TRPV1-YFP and design-CFP co-expressed in HEK293 cells; format: binding; conditions: for FRET signal between design-CFP and TRPV1-YFP: co-expressed in cells; for FRET efficiency: spectraFRET, design-CFP and TRPV1-YFP; for FRET ratio max: HEK293 cells
Text: Any design candidate can be assessed for the ability to bind TRPV1 using techniques including, but not limited to, the FRET protocols and SPR protocols described herein. For example, complementary fluorescent proteins (including, but not limited to, GFP CFP, YFP, and the like) may be fused recombinantly to a designed peptide and to TRPV1 for assessment of TRPV1 binding via FRET. In some non-limiting embodiments, binding of a candidate modulator to TRPV1 can be confirmed by observing a FRET ratio max of at least 1.25 when YFP is fused to the C-terminus of TRPV1, CFP is fused to the C-termini of a candidate peptide. In some embodiments, binding of a candidate modulator to TRPV1 can be confirmed by observing a FRET efficiency greater than about 4% (e.g., at least 5%, or at least 7%) when YFP is fused to the C-terminus of TRPV1, CFP is fused to the C-termini of a candidate peptide. FRET measurements can be made by co-expressing the FRET-labeled constructs in host cells, exciting the CFP construct in the host cells at 458 inn, and observing YFP emission at 530 nm. CFP emission can be separated from YFP emission by fitting of standard spectra acquired from cells expressing YFP or CFP only.
FRET efficiency is defined in its usual definition; it is inversely related to the sixth power of the distance between complementary fluorescent proteins on the binding partners. FRET efficiency is quantified from measurements of the fluorescence emission spectra, using the established method.
FRET ratios can be calculated from the increase in YFP emission due to energy transfer as described previously (Qiu, et al. J. Biol. Chem. 2005, 280, 24923, incorporated herein by reference in its entirety). CFP emission can be separated from YFP emission by fitting of standard spectra acquired from cells expressing only YFP or CFP. The fraction of YFP-tagged molecules that are associated with CFP-tagged molecules, Ab, is calculated as Ab=1/(1+KD/[Dfree]), where KD is the dissociation constant and [Dfree] is the concentration of free donor molecules. The FRET Ratio=1+Ab*(FRET Ratiomax−1). Regression analysis can be used to estimate Ab in individual cells. From each cell, the FRET ratioexp is experimentally determined. The predicted Ab value is then computed by adjusting two parameters, FRET Ratiomax, and apparent KD Ab was in turn used to give a predicted FRET ratiopredicted. By minimizing the squared errors (FRET ratioexp. FRET ratiopredicted)^2, KD was determined.
Apparent FRET efficiency can be calculated from the enhancement of YFP acceptor fluorescence emission due to energy transfer from the CFP donor using previously described methods. [see, e.g., Yang and Zheng, et al. Proc. Natl. Acad. Sci. U.S.A. 2010, 107 7083, which is incorporated herein by reference]. RatioA0, and RatioA1, are measured to calculate FRET efficiency. RatioA0, represents the ratio between acceptor emission intensities (in the absence of the donor) upon excitation at the donor and acceptor excitation wavelengths, and can be calculated at the YFP peak emission wavelength. A particular advantage of quantifying RatioA0 for FRET measurement is that changes in fluorescence intensity caused by many experimental factors cap be cancelled out by the ratiometric measurement:
To experimentally test whether our designed proteins work as PAM of TRPV1, we first tested whether they could interact with TRPV1 channel in live cells. We genetically fused YFP and CFP to the C termini of TRPV1 and our designs, respectively.
For spectroscopic imaging in FRET experiments, the imaging system was built upon a Nikon TE2000-U microscope. The excitation light was generated by an Ar laser. The duration of light exposure was controlled by a computer-driven mechanical shutter (Uniblitz). A spectrograph (Acton SpectraPro 2150i) was used in conjunction with a CCD camera (Roper Cascade 128B). […]

TRPV1 [2] = target: T1, TRPV1 (UniProt Q704Y3); assay: Whole-cell patch-clamp recordings of capsaicin activation, desensitization and tachyphylaxis; format: cell-based; conditions: design co-expressed with TRPV1; for acute current desensitization upon capsaicin activation: extracellular calcium present
T1 construct: other: TRPV1 alone; absence of extracellular calcium; other: design co-expressed with TRPV1; extracellular calcium p; repeated caps; fused on or other part: Possibly YFP at the C-terminus
Experimental: Patch-clamp recordings were performed with a HEKA EPC10 amplifier controlled by PatchMaster software (HEKA). Whole-cell recordings at ±80 mV were used to test whether an ANAP-incorporated channel was functional. Patch pipettes were prepared from borosilicate glass and fire-polished to resistance of ˜4 MΩ. For whole-cell recording, serial resistance was compensated by 60%. A solution with […], 10 mM glucose, 0.2 mM EDTA and 3 mM HEPES (pH 7.2) was used in both bath and pipette for concentration response curve measurements in TRPV1, TRPV2 and TRPV3. To measure calcium-dependent ligand-induced desensitization and tachyphylaxis, 2 mM CaCl2 was added to the solution. Membrane potential was clamped at ±80 mV. Current was sampled at 10 kHz and filtered at 2.9 kHz. All recordings were performed at room temperature (22° C.) with the maximum variation of 1° C.
Ligands were perfused to membrane patch by a gravity-driven system (RSC-200, Bio-Logic). Bath and ligand solution were delivered through separate tubes to minimize the mixing of solutions. Patch pipette was placed in front of the perfusion tube outlet.

ARD of TRPV1 = target: T2, ARD of TRPV1 (Rattus norvegicus, UniProt O35433); assay: Surface plasmon resonance, ARD immobilized on CM5 sensor chip; format: binding; conditions: protein boiled to disrupt three-dimensional structure
T2 construct: made in house; host or cells: E. coli BL21 (DE3), pET-32a
T2 sequence (O35433 with tags, fused parts or gaps): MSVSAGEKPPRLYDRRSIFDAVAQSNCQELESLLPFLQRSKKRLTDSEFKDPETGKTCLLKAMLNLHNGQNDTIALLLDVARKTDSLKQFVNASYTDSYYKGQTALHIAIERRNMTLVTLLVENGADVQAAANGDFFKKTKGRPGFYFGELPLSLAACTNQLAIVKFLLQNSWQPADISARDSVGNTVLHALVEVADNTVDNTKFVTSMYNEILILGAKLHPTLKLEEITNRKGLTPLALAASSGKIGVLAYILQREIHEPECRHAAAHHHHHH
Text: To further quantify the binding affinity of the designs to the ARD, we expressed and purified both designed proteins and the ARD in E. coli. The DNA sequence of each designed protein and the ARD of TRPV1 (see their primary protein sequences in Table 6) was synthesized and inserted into the pET-32a plasmid after codon optimization for protein expression in bacteria E. coli BL21 (DE3) was transformed with the recombinant plasmids. A single colony was inoculated into media containing ampicillin; cultures were incubated in 37° C. at 200 rpm. Once cell density reached to OD 0.8-1.0 at 600 inn, IPTG was introduced for induction. SDS-PAGE was used to monitor the expression. […] The protein expression was stopped by centrifugation at 8000 rpm for 30 min. We collected cells and resuspended in resuspension solution containing 50 mM Tris-HCl, 150 mM NaCl, 10% glycerol and protease inhibitor (pH 7.4). The cells were lysed by sonication. The supernatant after centrifugation was kept for future purifications. Taget proteins were obtained by Ni column, and then further purified by the reversed phase HPLC on a Jupiter C4 column (10×250 mm, Phenomenex, Torrance, CA, USA). […]
We then quantified the binding of De1 and De3 to the ARD protein fixed on the sensor chip by surface plasma resonance (SPR) (FIGS. 6A and 6B). […] Steady-state SPR responses were measured and used to determine the KD values. […]

TRPV1 [3] = assay: Calcium imaging (Fluo-4) of capsaicin activation in transfected HEK293 cells; format: cell-based; conditions: 0.5 nM capsaicin; design co-expressed with TRPV1
Experimental: We then investigated whether, upon binding of the designed proteins, TRPV1 activation was positively modulated. […] Probenecid (2 mM) was included in all solutions to prevent Fluo-4 leakage from cells. At the end of incubation, cells were washed three times with ECS and incubated in the same solution for another 20 min at room temperature to complete the intracellular hydrolysis process of the AM ester, which converts the non-fluorescent Fluo-4/AM into the fluorescent version Fluo-4.
Coverslip with dye-loaded cells was placed in the quick-release magnetic chamber (Warner) and mounted on the stage of a Nikon Eclipse TE2000-U microscope system equipped with a Roper Cascade 128B CCD camera. Fluo-4 was excited by an Argon laser with a filter set of Z488/10 (excitation), z488rdc (dichroic) and recorded through an emission filter HQ5001p (all from Chroma). The duration of light exposure was controlled by a computer-driven mechanical shutter (Uniblitz). Cell images were acquired sequentially with an exposure period of 200 ms at an interval of 1 s. The shutter and the camera were controlled and synchronized by MetaMorph software (Universal Imaging).

TRPV1 channel [4] = assay: Airyscan super resolution imaging of TRPV1-YFP and De1-CFP in HEK293 cells; format: cell-based; conditions: co-transfected HEK293 cells
Experimental: Super-resolution fluorescence microscopy was performed with the Zeiss LSM 880 fluorescence microscope with Airyscan. YFP fused to TRPV1 and CFP fused to the designed proteins were excited by laser line at 488 nm and 458 nm, respectively. We used a 60× oil-immersion objective (NA 1.42) in these experiments. Fluorescence imaging was performed with the default settings for CFP and YFP channels in the microscope controlled by the Zeiss ZEN software. Overlay of YFP- and CFP-channel images was also done in ZEN.

| Molecule | FRET signal between design-CFP and TRPV1-YFP (TRPV1 channel [1]) | FRET efficiency (TRPV1 channel [1]) | acute current desensitization upon capsaicin activation (TRPV1 [2]) | FRET ratio max (TRPV1 channel [1]) | binding with the ARD after boiling of the protein (ARD of TRPV1) | activation of TRPV1 by low capsaicin concentration when co-expressed with design (TRPV1 [3]) | capsaicin induced tachyphylaxis (TRPV1 [2]; repeated capsaicin application) | co-localization with TRPV1 on cell membrane (TRPV1 channel [4]) |
| --- | --- | --- | --- | --- | --- | --- | --- | --- |
| De4: design on scaffold 2HDZ used as negative control because it cannot refold well, SEQ ID NO: 38 (protein) LPESPRFAQKIWQQSVIGDYLARFKNDRVKALKAMEDSSNNSSMHRFAEFFAKAFEDLHRYLEEL | no FRET occurred | 3.8% | no such an effect was observed | – | – | – | – | – |
| De1: designed 93-residue protein binder to TRPV1 ARD, scaffold 1QZM, SEQ ID NO: 8 (protein) NGYSSEDKLRIAKRHLLPKQIERNALKKGELFVSEFAILGIILFYTDEAGVRGLEREISKLCRKAVKQLLLDKSTTSSHASGFHLHDYLGVMR | positive FRET signals | – | significantly slowed down | 3.86 | completely abolished | sufficient to activate TRPV1 channels | capsaicin induced tachyphylaxis was reduced | clear co-localization |
| De2: optimized version of De1, 93 residues, scaffold 1QZM, SEQ ID NO: 37 (protein) NGYWSEDKERIAKRHLLPKQIERNALKKGELKVWEFAIFGIILFYTWEAGVRGLEREISKLCRKAVKQLLLDKSTTRSWASGFHLHDYLGVMR | positive FRET signals | 7.4% | no such an effect was observed | 2.35 | – | – | – | – |
